For five molecules, Kd results are on record in patent US6461867.

This assay deals with T1, soluble H-2K^b (K^bsol), empty heterodimer of truncated K^b heavy chain and murine β-2 microglobulin (murine), P01901.
T1 chain 1: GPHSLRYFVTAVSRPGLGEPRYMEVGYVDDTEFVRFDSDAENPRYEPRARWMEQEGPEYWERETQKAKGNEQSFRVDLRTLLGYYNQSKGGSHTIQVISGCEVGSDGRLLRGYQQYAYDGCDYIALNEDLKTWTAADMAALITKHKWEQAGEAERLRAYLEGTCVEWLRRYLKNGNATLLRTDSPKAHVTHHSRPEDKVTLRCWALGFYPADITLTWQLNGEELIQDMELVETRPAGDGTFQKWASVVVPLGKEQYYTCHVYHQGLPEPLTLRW
T1 chain 2: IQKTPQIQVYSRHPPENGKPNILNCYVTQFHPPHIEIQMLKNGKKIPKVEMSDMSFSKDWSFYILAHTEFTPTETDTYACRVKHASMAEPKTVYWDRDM

For the molecule SIINFEKLTE (modifications not checked) [OVA-10C peptide], the Kd was 14 nM.
As for SIINFEKLT (modifications not checked) [OVA-9C peptide], the Kd is 11 nM.
In the case of SIINFEKL (modifications not checked) [OVA-8 peptide (ovalbumin 257-264)] it was 4.1 nM; in that of LESIINFEKL (modifications not checked) [OVA-10N peptide], 280 nM; in that of EQLESIINFEKLTEWTSSNVMEER (modifications not checked) [OVA-24 peptide], 71000 nM.

Usually Kd stands for the free concentration of one partner at which half of the binding sites on the other are occupied at equilibrium, for simple one-to-one binding.
